# Results: US6465423 (CENTRAL SYDNEY AREA HEALTH SERVICE, dated 2002)
# B1: acid-labile sub-unit (ALS) of insulin like growth factor binding protein complex (other, human, UniProt P35858 28-605, looked up)
# chain: ADPGTPGEAEGPACPAACVCSYDDDADELSVFCSSRNLTRLPDGVPGGTQALWLDGNNLSSVPPAAFQNLSSLGFLNLQGGQLGSLEPQALLGLENLCHLHLERNQLRSLALGTFAHTPALASLGLSNNRLSRLEDGLFEGLGSLWDLNLGWNSLAVLPDAAFRGLGSLRELVLAGNRLAYLQPALFSGLAELRELDLSRNALRAIKANVFVQLPRLQKLYLDRNLIAAVAPGAFLGLKALRWLDLSHNRVAGLLEDTFPGLLGLRVLRLSHNAIASLRPRTFKDLHFLEELQLGHNRIRQLAERSFEGLGQLEVLTLDHNQLQEVKAGAFLGLTNVAVMNLSGNCLRNLPEQVFRGLGKLHSLHLEGSCLGRIRPHTFTGLSGLRRLFLKDNGLVGIEEQSLWGLAELLELDLTSNQLTHLPHRLFQGLGKLEYLLLSRNRLAELPADALGPLQRAFWLDVSHNRLEALPNSLLAPLGRLRYLSLRNNSLRTFTPQPPGLERLWLEGNPWDCGCPLKALRDFALQNPSAVPRFVQAICEGDDCQPPAYTYNNITCASPPEVVGLDLRDLSEAHFAPC
# modifications: glycoprotein (N-linked carbohydrate); 125I-iodinated (chloramine-T) where used as tracer
# notes: mature; 84/86 kDa doublet on SDS-PAGE; In some experiments partially pure ALS or serum fractions (peak B) were used; also called ALS tracer
# B2: 28K IGF-binding protein BP-28 (other, human, UniProt P08833 26-259, looked up)
# chain: APWQCAPCSAEKLALCPPVSASCSEVTRSAGCGCCPMCALPLGAACGVATARCARGLSCRALPGEQQPLHALTRGQGACVQESDASAPHAAEAGSPESPESTEITEEELLDNFHLMAPSEEDHSILWDAISTYDGSKALHVTNIKKWKEPCRIELYRVVESLAKAQETSGEEISKFYLPNCNKNGFYHSRQCETSMDGEAGLCWCVYPWNGKRIPGSPEIRGDPNCQIYFNVQN
# notes: mature; also called purified amniotic fluid BP-28
# Assays:
# [1] = target: T1, Cross-linked BP-53-IGF-I tracer (covalent complex of BP-53 with [125I]IGF-I) (human, UniProt P17936 28-291; P05019 49-118, 125I-iodinated; cross-linked to BP-53 with disuccinimidyl suberate; glycoprotein; cross-linked to IGF-I with disuccinimidyl suberate); test: routine ALS assay, Superose-12, no serum added
# T1 construct: mature; About 60K; Used as tracer in the routine ALS assay; also called covalent BP-53-IGF-I complex; cross-linked tracer
# Description: The routine assay for ALS activity was developed, based on the conversion of a covalent BP-53-IGF-I complex of approximately 60K to 150K form in the presence of ALS.
# (§1) Samples to be tested for ALS activity were diluted to 200 μL in buffer containing 50 mmol/L sodium phosphate, 0.15 mol/L NaCl, and 0.2 g/L sodium azide, pH 6.5, with 10 g/L bovine albumin. Cross-linked BP-53-IGF-I tracer (~80,000 cpm; 4 ng) was added in 50 μL of the same buffer. After 25–30 min. of incubation at 22° C., 200 μL of the mixture was applied using a V-7 injector valve (Pharmacia) to a Superose-12 gel permeation column eluting at 1.0 mL/min (~2 megapascal pressure) in assay buffer without albumin. The column was calibrated with rabbit immunoglobulin G (Pentex; ~150K), which eluted mainly in fractions 22~24, peaking in fraction 23; BP-53-IGF-I tracer (~60K), which eluted mainly in fractions 25–27, peaking in fraction 26; IGF-I tracer bound to BP-28 (~35K, peaking in fraction 28); and IGF-I tracer (7.5K, peaking in fraction 33). Plotted as log (molecular mass) vs. elution volume, these four markers yielded a linear calibration curve (not shown). As a quantitative index of ALS activity (i.e. the degree of conversion of BP-53 to the 150K complex), the total radioactivity in fractions 22–24 was divided by that in fractions 25–27 to give a 150K/60K ratio. The values of this ratio typically varied between 0.1 and 2.0. […]
# [2] = target: B1; test: competition with cross-linked BP-53-IGF-I tracer in the routine ALS assay
# Description: as §1, with “2.0. The coefficient of variation of the 150K/60K ratio, based on analysis of variance of eight duplicate measurements covering a wide range of values, was 3.2%.” for “2.0.”
# T1 sequence (P17936 28-291, chain 1 of 2): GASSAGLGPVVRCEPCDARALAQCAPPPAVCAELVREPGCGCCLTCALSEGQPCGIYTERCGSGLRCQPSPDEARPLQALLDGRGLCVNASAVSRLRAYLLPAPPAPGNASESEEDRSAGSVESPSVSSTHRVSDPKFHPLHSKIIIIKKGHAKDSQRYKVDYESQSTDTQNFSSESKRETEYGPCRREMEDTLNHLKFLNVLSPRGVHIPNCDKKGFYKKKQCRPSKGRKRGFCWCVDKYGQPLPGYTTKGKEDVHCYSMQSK
# T1 sequence (P05019 49-118, chain 2 of 2): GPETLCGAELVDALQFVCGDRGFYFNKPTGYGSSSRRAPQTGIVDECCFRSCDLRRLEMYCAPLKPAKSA
150K/60K ratio [1],binding result [2],Binder
~1,,B1
,no binding (tested: 0.8 µg/mL),B2
